Several values for one entry are separate records, joined by “and”; a condition that tells them apart may be missing. Equal values may be shown once. Read-outs that look alike come from different tables or passages of the source.

Common to all, as to details: remark: other sources report otherwise
The target in assay [1] is T1, human CTC1-STN1-TEN1 (CST) heterotrimeric complex (human), Q2NKJ3.
T1 chain 1: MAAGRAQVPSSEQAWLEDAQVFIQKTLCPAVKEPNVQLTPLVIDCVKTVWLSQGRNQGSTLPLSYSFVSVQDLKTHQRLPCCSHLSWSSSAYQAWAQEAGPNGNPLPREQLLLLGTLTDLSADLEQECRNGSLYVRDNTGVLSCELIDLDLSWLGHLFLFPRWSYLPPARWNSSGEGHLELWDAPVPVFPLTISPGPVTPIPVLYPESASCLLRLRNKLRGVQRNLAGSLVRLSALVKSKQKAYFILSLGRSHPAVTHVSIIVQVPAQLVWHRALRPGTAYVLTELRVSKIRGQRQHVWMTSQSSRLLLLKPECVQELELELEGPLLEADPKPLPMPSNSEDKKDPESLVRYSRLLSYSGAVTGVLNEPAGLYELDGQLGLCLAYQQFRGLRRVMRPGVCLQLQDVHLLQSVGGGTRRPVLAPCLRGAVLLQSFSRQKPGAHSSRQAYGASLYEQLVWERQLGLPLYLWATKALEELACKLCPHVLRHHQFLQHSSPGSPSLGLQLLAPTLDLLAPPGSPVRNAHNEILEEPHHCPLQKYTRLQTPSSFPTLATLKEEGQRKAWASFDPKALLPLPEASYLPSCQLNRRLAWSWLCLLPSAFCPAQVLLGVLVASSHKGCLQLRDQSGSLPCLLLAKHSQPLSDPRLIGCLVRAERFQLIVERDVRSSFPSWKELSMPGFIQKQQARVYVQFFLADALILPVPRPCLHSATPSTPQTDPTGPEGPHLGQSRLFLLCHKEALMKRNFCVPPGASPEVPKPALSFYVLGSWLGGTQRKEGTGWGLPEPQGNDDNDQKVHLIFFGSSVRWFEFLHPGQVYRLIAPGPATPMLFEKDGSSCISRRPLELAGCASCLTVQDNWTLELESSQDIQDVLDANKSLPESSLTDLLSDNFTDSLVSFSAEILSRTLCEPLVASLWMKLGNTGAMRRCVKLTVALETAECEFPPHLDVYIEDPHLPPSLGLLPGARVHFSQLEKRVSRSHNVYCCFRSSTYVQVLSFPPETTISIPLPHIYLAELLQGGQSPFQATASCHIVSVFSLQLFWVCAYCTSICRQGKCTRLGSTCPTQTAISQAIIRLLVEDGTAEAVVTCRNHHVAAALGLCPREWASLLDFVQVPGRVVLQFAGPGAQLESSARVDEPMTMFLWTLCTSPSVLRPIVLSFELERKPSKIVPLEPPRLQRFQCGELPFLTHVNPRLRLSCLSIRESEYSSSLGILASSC
T1 chain 2: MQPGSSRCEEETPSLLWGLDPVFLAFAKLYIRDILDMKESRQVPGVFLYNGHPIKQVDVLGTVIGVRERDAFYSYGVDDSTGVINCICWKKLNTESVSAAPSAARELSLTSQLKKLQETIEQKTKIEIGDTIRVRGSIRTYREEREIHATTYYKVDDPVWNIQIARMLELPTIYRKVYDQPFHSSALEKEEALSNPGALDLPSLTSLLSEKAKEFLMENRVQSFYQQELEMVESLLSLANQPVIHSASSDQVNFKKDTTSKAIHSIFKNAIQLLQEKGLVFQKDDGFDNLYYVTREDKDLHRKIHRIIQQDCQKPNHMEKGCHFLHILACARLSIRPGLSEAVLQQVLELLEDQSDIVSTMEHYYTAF
T1 chain 3: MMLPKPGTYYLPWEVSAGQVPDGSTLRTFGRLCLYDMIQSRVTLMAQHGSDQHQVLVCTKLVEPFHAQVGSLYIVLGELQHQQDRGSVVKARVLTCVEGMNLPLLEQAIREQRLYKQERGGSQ

Assay [2] addresses T1, human CTC1-STN1-TEN1 (CST) …. As to the kind of experiment: cryo-EM structure.
The target is the same in assay [3]. As to the kind of experiment: negative-stain EM single-particle analysis.
For assay [4] the target is unchanged. Kind of assay: negative-stain EM single-particle analysis.

B1: human CTC1-STN1-TEN1 (CST) heterotrimeric complex, Q2NKJ3;Q9H668;Q86WV5 (complex)
chain 1: MAAGRAQVPSSEQAWLEDAQVFIQKTLCPAVKEPNVQLTPLVIDCVKTVWLSQGRNQGSTLPLSYSFVSVQDLKTHQRLPCCSHLSWSSSAYQAWAQEAGPNGNPLPREQLLLLGTLTDLSADLEQECRNGSLYVRDNTGVLSCELIDLDLSWLGHLFLFPRWSYLPPARWNSSGEGHLELWDAPVPVFPLTISPGPVTPIPVLYPESASCLLRLRNKLRGVQRNLAGSLVRLSALVKSKQKAYFILSLGRSHPAVTHVSIIVQVPAQLVWHRALRPGTAYVLTELRVSKIRGQRQHVWMTSQSSRLLLLKPECVQELELELEGPLLEADPKPLPMPSNSEDKKDPESLVRYSRLLSYSGAVTGVLNEPAGLYELDGQLGLCLAYQQFRGLRRVMRPGVCLQLQDVHLLQSVGGGTRRPVLAPCLRGAVLLQSFSRQKPGAHSSRQAYGASLYEQLVWERQLGLPLYLWATKALEELACKLCPHVLRHHQFLQHSSPGSPSLGLQLLAPTLDLLAPPGSPVRNAHNEILEEPHHCPLQKYTRLQTPSSFPTLATLKEEGQRKAWASFDPKALLPLPEASYLPSCQLNRRLAWSWLCLLPSAFCPAQVLLGVLVASSHKGCLQLRDQSGSLPCLLLAKHSQPLSDPRLIGCLVRAERFQLIVERDVRSSFPSWKELSMPGFIQKQQARVYVQFFLADALILPVPRPCLHSATPSTPQTDPTGPEGPHLGQSRLFLLCHKEALMKRNFCVPPGASPEVPKPALSFYVLGSWLGGTQRKEGTGWGLPEPQGNDDNDQKVHLIFFGSSVRWFEFLHPGQVYRLIAPGPATPMLFEKDGSSCISRRPLELAGCASCLTVQDNWTLELESSQDIQDVLDANKSLPESSLTDLLSDNFTDSLVSFSAEILSRTLCEPLVASLWMKLGNTGAMRRCVKLTVALETAECEFPPHLDVYIEDPHLPPSLGLLPGARVHFSQLEKRVSRSHNVYCCFRSSTYVQVLSFPPETTISIPLPHIYLAELLQGGQSPFQATASCHIVSVFSLQLFWVCAYCTSICRQGKCTRLGSTCPTQTAISQAIIRLLVEDGTAEAVVTCRNHHVAAALGLCPREWASLLDFVQVPGRVVLQFAGPGAQLESSARVDEPMTMFLWTLCTSPSVLRPIVLSFELERKPSKIVPLEPPRLQRFQCGELPFLTHVNPRLRLSCLSIRESEYSSSLGILASSC
chain 2: MQPGSSRCEEETPSLLWGLDPVFLAFAKLYIRDILDMKESRQVPGVFLYNGHPIKQVDVLGTVIGVRERDAFYSYGVDDSTGVINCICWKKLNTESVSAAPSAARELSLTSQLKKLQETIEQKTKIEIGDTIRVRGSIRTYREEREIHATTYYKVDDPVWNIQIARMLELPTIYRKVYDQPFHSSALEKEEALSNPGALDLPSLTSLLSEKAKEFLMENRVQSFYQQELEMVESLLSLANQPVIHSASSDQVNFKKDTTSKAIHSIFKNAIQLLQEKGLVFQKDDGFDNLYYVTREDKDLHRKIHRIIQQDCQKPNHMEKGCHFLHILACARLSIRPGLSEAVLQQVLELLEDQSDIVSTMEHYYTAF
chain 3: MMLPKPGTYYLPWEVSAGQVPDGSTLRTFGRLCLYDMIQSRVTLMAQHGSDQHQVLVCTKLVEPFHAQVGSLYIVLGELQHQQDRGSVVKARVLTCVEGMNLPLLEQAIREQRLYKQERGGSQ
Usually stoichiometry N stands for a count of units in the complex or per binding partner. For B1, the stoichiometry N in assay [1] was 10; in assay [2], 10; in assay [3], 4 and 2; in assay [4], 10.

The record behind these values is article doi:10.1101/815886.
